What was measured:
C-reactive protein (CRP) = molecular target: T1, C-reactive protein (CRP) (human, UniProt P02741 19-224); assay: electrochemical impedance spectroscopy; aptamer on Au NP/CNT electrode; linear 0.1-10^4 ug/ml, LOD 0.023 ug/ml; SPR (Biacore 2000, SA chip): 10 mM Hepes, 150 mM NaCl, pH 7.4, 0.005% Tween 20, 25 C; EIS: 45 min incubation (plasma workflow), PBS pH 7.4 washes, 5 mM ferri/ferrocyanide probe; details: protein: commercial; chain copies: 5
T1 sequence: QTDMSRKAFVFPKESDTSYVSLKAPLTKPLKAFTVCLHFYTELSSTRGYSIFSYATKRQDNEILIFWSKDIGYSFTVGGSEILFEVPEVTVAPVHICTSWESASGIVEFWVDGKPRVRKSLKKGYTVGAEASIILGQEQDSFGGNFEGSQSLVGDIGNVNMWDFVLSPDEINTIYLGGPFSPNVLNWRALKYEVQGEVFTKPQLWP

[1] = molecular target: soluble P-selectin (sP-selectin) (human, UniProt P16109 42-771); assay: electrochemical impedance spectroscopy; aptamer on Au NP/CNT electrode; linear 0.1-10^4 ng/ml, LOD 0.019 ng/ml; SPR (Biacore 2000, SA chip): 10 mM Hepes, 150 mM NaCl, pH 7.4, 0.005% Tween 20, 25 C; EIS: 45 min incubation (plasma workflow), PBS pH 7.4 washes, 5 mM ferri/ferrocyanide probe; details: protein: commercial
Sequence of soluble P-selectin (sP-selectin) (P16109 42-771): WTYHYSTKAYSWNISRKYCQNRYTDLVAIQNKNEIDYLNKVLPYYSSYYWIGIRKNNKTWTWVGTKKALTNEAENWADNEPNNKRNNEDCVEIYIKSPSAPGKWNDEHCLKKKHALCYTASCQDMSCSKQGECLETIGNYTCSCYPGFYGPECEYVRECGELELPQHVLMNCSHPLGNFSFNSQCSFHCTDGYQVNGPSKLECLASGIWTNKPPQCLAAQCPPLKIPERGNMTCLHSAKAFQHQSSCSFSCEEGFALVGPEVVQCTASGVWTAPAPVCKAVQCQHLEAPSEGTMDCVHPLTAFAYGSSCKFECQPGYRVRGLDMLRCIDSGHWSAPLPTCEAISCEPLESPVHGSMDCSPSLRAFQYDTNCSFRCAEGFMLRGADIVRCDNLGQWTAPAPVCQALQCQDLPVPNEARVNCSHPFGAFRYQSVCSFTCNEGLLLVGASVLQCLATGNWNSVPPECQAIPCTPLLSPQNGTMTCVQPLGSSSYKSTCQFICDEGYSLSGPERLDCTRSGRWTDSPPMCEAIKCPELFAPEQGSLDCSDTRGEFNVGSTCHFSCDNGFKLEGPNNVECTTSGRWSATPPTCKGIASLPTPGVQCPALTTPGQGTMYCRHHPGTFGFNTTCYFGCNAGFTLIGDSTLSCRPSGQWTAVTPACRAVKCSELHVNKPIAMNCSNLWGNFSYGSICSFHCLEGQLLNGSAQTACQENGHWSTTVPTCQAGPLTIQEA

Question: Does GCCTGTAAGGTGGTCGGTGTGGCGAGTGTGTTAGGAGAGATTGC (ssDNA, thiol (position not given) for the electrode) [CRP aptamer] bind (C-reactive protein (CRP))?
Answer: binds

B1: sP-selectin aptamer (ssRNA)
RNA: ACGCUCAACGAGCCAGGAACAUCGACGUCAGCAAACGCGAGCGCAACCAGUAACACC
modifications: thiol (position not given) for the electrode; no 2' modification stated
Question: Does B1 bind [1]?
Answer: binds

From paper PMC11633740, “Rapid prediction of acute thrombosis via nanoengineered immunosensors with unsupervised clustering for multiple circulating biomarkers”
